Source: patent publication US20200255516A1

Target: Full-length human TIGIT on CHO cells overexpressing TIGIT (human) (UniProt Q495A1)
Experiment: FACS blocking assay on TIGIT-CHO cells; competitor CF633-labeled CD155-Fc at 2 ug/ml

Full-length human TIGIT on CHO cells overexpressing TIGIT (human), sequence (Q495A1 22-244 limits assumed): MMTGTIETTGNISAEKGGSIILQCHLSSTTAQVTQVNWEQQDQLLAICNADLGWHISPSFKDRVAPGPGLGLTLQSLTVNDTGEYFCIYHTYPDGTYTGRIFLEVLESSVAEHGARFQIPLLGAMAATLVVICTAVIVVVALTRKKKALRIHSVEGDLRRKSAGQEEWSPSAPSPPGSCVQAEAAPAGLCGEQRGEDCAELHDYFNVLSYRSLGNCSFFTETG

An IC50 greater than 10 µM was found for human IgG4 antibody (hIgG4) in this work.
